According to paper PMC6857588:

What follows are substances tested against filamentous actin (F-actin) (not stated (human platelet or rabbit muscle actin)) (UniProt P68135) (assay: co-sedimentation; 0.5 µM NMY-2S1 incubated with different amounts of actin, 150,000 g for 1.5 h at room temperature; percent of NMY-2 S1 in the pellet fitted with a one-site specific binding model).

Going from “NMY-2(S251A)S1 (NMY-2 S1 fragment S251A bound to MLC-4 and MLC-5) (from UniProt G5EBY3 1-874; Q09510 1-172; Q9XVI9 1-142) (complex)” to “wild-type NMY-2S1 (NMY-2 S1 fragment bound to MLC-4 and MLC-5) (from UniProt G5EBY3 1-874; Q09510 1-172; Q9XVI9 1-142) (complex)”, the Kd rises from 62 nM to 660 nM (11-fold). The first binds more tightly here.

First: NMY-2(R252A)S1 (NMY-2 S1 fragment R252A bound to MLC-4 and MLC-5) (from UniProt G5EBY3 1-874; Q09510 1-172; Q9XVI9 1-142) (complex)
Second: NMY-2(S250A)S1 (NMY-2 S1 fragment S250A bound to MLC-4 and MLC-5) (from UniProt G5EBY3 1-874; Q09510 1-172; Q9XVI9 1-142) (complex)
The Kd of the first is 3.7-fold higher: 2460 nM for the first, 660 nM for the second. The second binds more tightly here.
